Laboratory results reported in doi:10.1101/2021.02.18.431788.

Molecular target: Neurofibromin (NF1), full length, isoform 1 (human) (UniProt P21359)
Assay: AUC

stoichiometry N: 2
Substance: Neurofibromin (NF1), full length, isoform 1, P21359-2 1-2818
